In publication PMC3992121 (Proteins, 2013):

Biological target: the molecule itself
Assay: SEC

B1: BaiA1, 3α-Hydroxysteroid Dehydrogenase from Clostridium scindens VPI 12708 (enzyme, UniProt P07914 1-249, looked up)
chain: MKLVQDKITIITGGTRGIGFAAAKLFIENGAKVSIFGETQEEVDTALAQLKELYPEEEVLGFAPDLTSRDAVMAAVGTVAQKYGRLDVMINNAGITMNSVFSRVSEEDFKNIMDINVNGVFNGAWSAYQCMKDAKQGVIINTASVTGIYGSLSGIGYPTSKAGVIGLTHGLGREIIRKNIRVVGVAPGVVDTDMTKGLPPEILEDYLKTLPMKRMLKPEEIANVYLFLASDLASGITATTISVDGAYRP
  stoichiometry N: 4

B2: BaiA2, 3α-Hydroxysteroid Dehydrogenase from Clostridium scindens VPI 12708 (enzyme, UniProt P19337 1-249, looked up)
chain: MNLVQDKVTIITGGTRGIGFAAAKIFIDNGAKVSIFGETQEEVDTALAQLKELYPEEEVLGFAPDLTSRDAVMAAVGQVAQKYGRLDVMINNAGITSNNVFSRVSEEEFKHIMDINVTGVFNGAWCAYQCMKDAKKGVIINTASVTGIFGSLSGVGYPASKASVIGLTHGLGREIIRKNIRVVGVAPGVVNTDMTNGNPPEIMEGYLKALPMKRMLEPEEIANVYLFLASDLASGITATTVSVDGAYRP
modifications: selenomethionine (protein expressed in a selenomethionine-containing medium for structure determination)
  stoichiometry N: 4
